Tests used:
[1] = tested on: HEK cells; test: Crossbow fibronectin micropatterns (geometric constraint); type: cell-based, human
Procedure: (§1) Tissue culture plates were coated with Col-T-gel (Fischer Scientific) of stiffness ranging from 0.8 KPa (soft) to 30 KPa (stiff) as per manufacturer recommendations and allowed to solidify for 40 min at 37° C. inside tissue culture incubators. Some experiments were performed with cells seeded on the poly-hydrogel plates of defined stiffness: 0.2 kPa and 16 kPa soft and hard polyhydrogels, respectively (CytoSoft, Advanced Biomatrix, Inc.,). The determination of stiffness of silicone substrates were done by the manufacturer as per previously published protocols. For certain experiments, indicated amounts of sAgrin was incorporated into the 0.8 KPa collagen gels before gelation process. Upon gelation, trypsinized cells or excised mouse skin explants were plated onto the gels of different stiffness either alone or containing sAgrin. The cells/tissues were incubated under standard culture condition with 500 μl recommended culture medium for the indicated days. The crossbow shaped micropatterns with fibronectin coated islands were generated by microlithography on a 19.5×19.5 mm coverslide from Cytoo, Inc., France. The micropatterns had surface areas of 800μ^2 or 1600μ^2, respectively. Fifty thousand cells after initial siRNA treatment was placed on the micropatterns for 4-6 h before processing them for immunofluorescence. […]

[2] = tested on: mouse skin explants; test: Mouse skin explant assay (keratinocyte outgrowth); type: cell-based
Procedure: Three days old ICR strain mouse pups were sacrificed and the hind skin on either side of the midline in the shoulder region was washed in 70% ethanol and excised using scalpel. The excised skin was washed in 70% ethanol and placed (dermis side down) on the pre-made gel substrates of defined stiffness, either in the absence or presence of 20 μg/ml sAgrin. The explants were allowed to adhere for 2 h before adding the keratinocyte culture medium (DMEM) containing 300 μM Ca^2+ as described previously^31. The keratinocyte outgrowth and the skin tissues regularly imaged under an Axiovert-200 inverted microscope and were subsequently fixed in 4% paraformaldehyde and immunostained for Keratin 17 antibody.
as §1

[3] = tested on: mouse keratinocytes; test: Cell stiffness by atomic force microscopy (AFM); type: cell-based
Procedure: The stiffness of the mouse keratinocyte cells was measured using a Nanowizard IV BioAFM system (JPK Instruments, Germany). Confluent mouse kerantinocyte monolayers were cultured on a petri dish in PBS media. The monolayers were scratched across the center of the petri dish using a 100 μl pipette tip and characterised after 4 hrs. Indentations were performed on randomly selected cells at the wound edge with a polystyrene bead of diameter (˜4.5 μm) attached to the end of a cantilever (k=0.03 N/m, Novascan Technologies, Inc., Ames, Iowa) using a force of 3 nN at 1 Hz. More than 60 cells from triplicate experiments were characterized and averaged to evaluate the Young's modulus for each condition. Young's modulus values were calculated using JPK Data Processing Software (JPK Instruments, Germany), which employs Hertz's contact model for spherical indenters (diameter 4.5 μm; Poisson's ratio 0.5) fitted to the extend curves.

[4] = tested on: MMP12; test: MMP12 levels in HaCaT cells (Western blot / immunostaining); type: cell-based, human
Procedure: Tissue culture plates were coated with Col-T-gel (Fischer Scientific) of stiffness ranging from 0.8 KPa (soft) to 30 KPa (stiff) as per manufacturer recommendations and allowed to solidify for 40 min at 37° C. inside tissue culture incubators. Some experiments were performed with cells seeded on the poly-hydrogel plates of defined stiffness: 0.2 kPa and 16 kPa soft and hard polyhydrogels, respectively (CytoSoft, Advanced Biomatrix, Inc.,). The determination of stiffness of silicone substrates were done by the manufacturer as per previously published protocols. For certain experiments, indicated amounts of sAgrin was incorporated into the 0.8 KPa collagen gels before gelation process. Upon gelation, trypsinized cells or excised mouse skin explants were plated onto the gels of different stiffness either alone or containing sAgrin. The cells/tissues were incubated under standard culture condition with 500 μl recommended culture medium for the indicated days. The crossbow shaped micropatterns with fibronectin coated islands were generated by microlithography on a 19.5×19.5 mm coverslide from Cytoo, Inc., France. The micropatterns had surface areas of 800μ^2 or 1600μ^2, respectively. Fifty thousand cells after initial siRNA treatment was placed on the micropatterns for 4-6 h before processing them for immunofluorescence. For some experiments, 10 μg/ml sAgrin was added on the slides 18 h prior to the addition of cells.
Indicated cells post-manipulation were washed twice with cold Phosphate buffered saline (PBS) and lysed with cold 1% NP-40 lysis buffer supplemented with 1× protease inhibitor cocktail (Roche Applied Biosciences) for 15 mins at 4° C. The cell lysate was centrifuged at 13,000 rpm for 15 min. This was followed by protein estimation using Bradford reagent. Subsequently, […] of total protein was mixed with an equal volume of 2× Laemmli sample buffer and heated at 95° C. for 5 mins. This was followed by resolution with SDS-PAGE gel. The resolved proteins were transferred onto nitrocellulose membrane and blocked in 5% skimmed milk reconstituted in 1×PBS containing 0.1% Tween-20, and probed overnight with the respective primary antibody. The membrane was then washed with 1×PBS supplemented with 0.1% Tween-20: three times at 15 min intervals. This was followed by 1 h incubation in conjugated horseradish peroxidase HRP secondary antibody (Santa Cruz Biotechnology). […] The density of the various bands was quantified using the Image-J software.
Cells were cultured on eight-well chamber slides or coverslips over-night. […] The images were processed and analyzed by Zen blue software. […]

B1: sAgrin: C-terminus recombinant Agrin fragment containing 8 amino acid 'Z8' insert and LG3 domain (SEQ ID NO: 7), His-tagged, expressed in E. coli (protein)
chain: DTLAFDGRTFVEYLNAVTESELANEIPVEKALQSNHFELSLRTEATQGLVLWSGKATERADYVALAIVDGHLQLSYNLGSQPVVLRSTVPVNTNRWLRVVAHREQREGSLQVGNEAPVTGSSPLGATQLDTDGALWLGGLPELPVGPALPKAYGTGFVGCLRDVVVGRHPLHLLEDAVTKPELRPCPTP
modifications: His tag
F-actin stress fibers and pMLC in small crossbow patterns ([1]; 800μ^2 patterns, 20 μg/ml sAgrin): partially rescued F-actin stress fibers and higher pMLC recruitment to the transverse arc
stress fiber formation in large crossbow patterns ([1]; 1600μ^2 patterns): further accentuated
tension curvatures at transverse arcs ([1]; large crossbow patterns): significantly higher tension curvatures
F-actin stress fibers and pMLC in MMP12 knockdown cells ([1]; large crossbow patterns, sAgrin nourishment): did not exhibit F-actin stress fibers and pMLC enrichment in the transverse arcs
tension signature in Agrin depleted cells ([1]; sAgrin in FN crossbow matrix, large patterns): restored the tension signature of F-actin stress fiber network and pMLC enriched transverse arcs
keratinocyte outgrowth on soft substrates ([2]; soft ECM, 20 μg/ml sAgrin, day 5): significantly enhanced keratinocyte outgrowth
keratinocyte outgrowth of Agrin depleted explants on stiff substrates ([2]; stiff ECM with 20 μg/ml sAgrin): exhibited higher keratinocyte outgrowth
stiffness of migrating MMP12 knockdown keratinocytes ([3]; 4 h post-injury, sAgrin treatment): not restored by sAgrin treatment
stiffness of migrating keratinocytes ([3]; Agrin knockdown rescued with 10 μg/ml sAgrin, 4 h post-wound scratch, control ~2.1, knockdown ~0.9 KPa): ~1.5 KPa
MMP12 levels on soft matrix, exposure time series ([4]; 10 μg/ml sAgrin): increased MMP12 levels
MMP12 protein levels on soft substrates, concentration series ([4]; 0.8 kPa, increasing sAgrin, 18 h): strongly stabilized MMP12 protein levels in a dose-dependent fashion
MMP12 and Agrin at the leading migrating front ([4]; 6 h post-wound scratch, sAgrin 10 μg/ml): further heightened
MMP12 levels in Agrin knockdown cells on stiff ECM ([4]; increasing sAgrin, 18 h, dose-dependent): restored their MMP12 levels
